Measurements reported in patent US20190194338A1 (Seagen, published 2019).

Columns and labels:
[1] = target: T1, human BCMA expressed on cells (NCI-H929, U266, JJN3, 293:BCMA) (human, UniProt Q02223 1-184); assay: binding to U266 cells
T1 construct: Endogenous BCMA on myeloma lines or full-length BCMA clone in HEK 293 cells; also called B-cell maturation antigen; CD269
T1 sequence: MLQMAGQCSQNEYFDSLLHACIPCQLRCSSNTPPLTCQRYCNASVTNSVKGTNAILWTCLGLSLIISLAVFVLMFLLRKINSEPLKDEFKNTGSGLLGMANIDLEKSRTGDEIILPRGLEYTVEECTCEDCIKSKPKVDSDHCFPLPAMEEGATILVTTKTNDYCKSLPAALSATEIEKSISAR

[2] = target: T1, human BCMA expressed on cells …; assay: binding to JJN3 cells
[3] = target: T2, FcγRIIIa (hCD16) on transfected CHO cells (human, UniProt P08637 17-254); assay: competition with labelled h00 on CHO cells with FcγRIIIa
T2 construct: whole, on cells; Also expressed on Jurkat effector cells in the signalling assay; also called human FcRIIIa
T2 sequence (P08637 17-254): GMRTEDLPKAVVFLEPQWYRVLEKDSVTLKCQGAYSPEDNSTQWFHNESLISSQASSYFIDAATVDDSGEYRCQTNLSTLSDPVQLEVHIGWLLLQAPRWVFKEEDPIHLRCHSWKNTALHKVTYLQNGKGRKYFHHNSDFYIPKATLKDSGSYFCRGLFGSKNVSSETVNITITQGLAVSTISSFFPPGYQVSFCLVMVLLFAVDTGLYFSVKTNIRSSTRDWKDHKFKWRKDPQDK

Binder | Kd [1] [nM] | Kd [2] [nM] | binding result [3]
cSG16.17 wild-type (antibody, domain: wild-type human IgG1 heavy chain constant domains; Rat VH and VL fused to human IgG1 and kappa constants; also called chimeric SG16.17; cSG16.17 G1 WT; not shown: human kappa light chain constant domain) heavy: not shown light: DIQMTQSPASLSASLGETVSIECLASEDISDDLAWYQQKSGKSPQVLVYTTSRLQDGVPSRFSGSGSGTRFSLKIIVMQPEDEADYFCQQTYKFPPTFGAGTRLDLKR | ~10 | ~15 | binds
cSG16.17 mutant (antibody, name in EU numbering, domain: human IgG1 heavy chain constant domains; Positions of the Fc mutations are EU numbers, not positions on the UniProt entry; also called cSG16.17 S239D:A330L:I332E; chimeric SG16.17 IgG1 S239D, A330L, I332E; not shown: human kappa light chain constant domain) heavy: QVNLLQSRAALVKPGASVKLSCEASGYTFTDYYIHWVKQSHGKSLEWIGYINPNSGYTKYNENFKTKATMTADKSTNTAYVELSRLTSEDSATYFCTRYMWERVTGFFDFWGPGTKVTVSSASTKGPSVFPLAPSSKSTSGGTAALGCLVKDYFPEPVTVSWNSGALTSGVHTFPAVLQSSGLYSLSSVVTVPSSSLGTQTYICNVNHKPSNTKVDKKVEPKSCDKTHTCPPCPAPELLGGPDVFLFPPKPKDTLMISRTPEVTCVVVDVSHEDPEVKFNWYVDGVEVHNAKTKPREEQYNSTYRVVSVLTVLHQDWLNGKEYKCKVSNKALPLPEEKTISKAKGQPREPQVYTLPPSRDELTKNQVSLTCLVKGFYPSDIAVEWESNGQPENNYKTTPPVLDSDGSFFLYSKLTVDKSRWQQGNVFSCSVMHEALHNHYTQKSLSLSPGK light: DIQMTQSPASLSASLGETVSIECLASEDISDDLAWYQQKSGKSPQVLVYTTSRLQDGVPSRFSGSGSGTRFSLKIIVMQPEDEADYFCQQTYKFPPTFGAGTRLDLKR |  |  | binds
